The target of this experiment is T1, native hsp110 from murine tumor cells (Colon26 / colon 26, Meth A) and liver (mouse (murine colon 26 tumor), UniProt Q61699 2-858, limits assumed).
T1 construct: Native protein in cell extracts or chromatographic fractions; also called heat shock protein 110
The experiment can be described thus: immunoblot of the purified native hsp110 fraction (ion exchange and size exclusion) from Colon26 cells.

T1 sequence (Q61699 2-858 limits assumed): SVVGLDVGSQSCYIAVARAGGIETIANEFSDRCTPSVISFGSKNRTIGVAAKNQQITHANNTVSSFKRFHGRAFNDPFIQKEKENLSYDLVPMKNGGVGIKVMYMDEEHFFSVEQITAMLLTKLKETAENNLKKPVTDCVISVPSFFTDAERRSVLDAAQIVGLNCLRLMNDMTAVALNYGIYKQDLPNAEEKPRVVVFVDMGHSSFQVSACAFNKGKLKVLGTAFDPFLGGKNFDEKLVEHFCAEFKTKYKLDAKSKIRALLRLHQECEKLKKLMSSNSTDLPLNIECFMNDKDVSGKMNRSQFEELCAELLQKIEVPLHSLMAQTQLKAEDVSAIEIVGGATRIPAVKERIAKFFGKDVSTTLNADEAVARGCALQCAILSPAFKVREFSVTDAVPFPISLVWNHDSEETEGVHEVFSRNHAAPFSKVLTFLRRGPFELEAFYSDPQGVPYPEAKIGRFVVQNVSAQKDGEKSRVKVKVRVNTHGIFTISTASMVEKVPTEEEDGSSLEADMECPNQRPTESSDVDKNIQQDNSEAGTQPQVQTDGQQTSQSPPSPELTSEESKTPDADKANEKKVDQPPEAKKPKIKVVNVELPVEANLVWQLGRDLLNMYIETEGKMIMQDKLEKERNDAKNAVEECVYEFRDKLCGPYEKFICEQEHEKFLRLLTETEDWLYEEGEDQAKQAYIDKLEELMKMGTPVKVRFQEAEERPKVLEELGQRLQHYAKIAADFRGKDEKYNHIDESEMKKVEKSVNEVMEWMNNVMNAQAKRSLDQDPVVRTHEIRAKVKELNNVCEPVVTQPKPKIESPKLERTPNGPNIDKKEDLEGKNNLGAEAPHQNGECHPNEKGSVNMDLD

B1: T-complex polypeptide1 (TCP-1) in Colon26 cells (other)
chain: not shown
On to B1, for which the binding result is “no binding”.

Values taken from patent US20080103095A1 (HEALTH RESEARCH, published 2008).
